This is an account of results in publication PMC5469796, “Interaction of PKR with single-stranded RNA”.

What is called Kd is a measure of binding affinity in units of concentration.

In data set [1] the target is 229-kinase (UniProt P19525). The experiment in a line: sedimentation velocity AUC. As to conditions: AU75: 75 mM HEPES pH 7.5, 75 mM NaCl, 0.1 mM EDTA, 0.1 mM TCEP, 20 °C, 50,000 rpm, 260 nm; errors are confidence intervals (95% joint stated for Table 2) ….
The target in data set [2] is 242-kinase (UniProt P19525). The experiment in a line: sedimentation velocity AUC. Particulars: AU75: 75 mM HEPES pH 7.5, 75 mM NaCl, 0.1 mM EDTA, 0.1 mM TCEP, 20 °C, 50,000 rpm, 260 nm; errors are confidence intervals (95% joint stated for Table 2) ….
Chain of 242-kinase (UniProt P19525) (P19525 242-551): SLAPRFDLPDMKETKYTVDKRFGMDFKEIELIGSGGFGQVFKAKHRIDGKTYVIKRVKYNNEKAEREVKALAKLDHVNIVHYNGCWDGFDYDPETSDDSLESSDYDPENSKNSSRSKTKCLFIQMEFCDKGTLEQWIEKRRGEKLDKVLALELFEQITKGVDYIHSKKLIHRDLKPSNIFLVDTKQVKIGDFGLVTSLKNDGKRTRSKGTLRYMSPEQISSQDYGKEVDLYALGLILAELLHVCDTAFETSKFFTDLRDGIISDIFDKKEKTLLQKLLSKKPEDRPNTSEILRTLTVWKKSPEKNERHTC
Data set [3] concerns the target 229-kinase (UniProt P19525 229-551). Nature of the data set: sedimentation velocity AUC; Kd1, sequential 2:1; AU75: 75 mM HEPES pH 7.5, 75 mM NaCl, 0.1 mM EDTA, 0.1 mM TCEP, 20 °C, 50,000 rpm, 260 nm; errors are confidence intervals (95% joint stated for Table 2); crosslinking in AU75 + 10 mM EDTA, 0.5 µM RNA, 1 µM protein, on ice before UV. As to conditions: protein: recombinant; tags: TEV-cleaved, extra N-terminal Gly; chain copies: 2; single strand.

For a further data set, the target named is PKR full length (UniProt P19525 1-551). The data set is described as above. Particulars: protein: recombinant, chain copies: 2.
Chain of PKR full length (P19525 whole entry): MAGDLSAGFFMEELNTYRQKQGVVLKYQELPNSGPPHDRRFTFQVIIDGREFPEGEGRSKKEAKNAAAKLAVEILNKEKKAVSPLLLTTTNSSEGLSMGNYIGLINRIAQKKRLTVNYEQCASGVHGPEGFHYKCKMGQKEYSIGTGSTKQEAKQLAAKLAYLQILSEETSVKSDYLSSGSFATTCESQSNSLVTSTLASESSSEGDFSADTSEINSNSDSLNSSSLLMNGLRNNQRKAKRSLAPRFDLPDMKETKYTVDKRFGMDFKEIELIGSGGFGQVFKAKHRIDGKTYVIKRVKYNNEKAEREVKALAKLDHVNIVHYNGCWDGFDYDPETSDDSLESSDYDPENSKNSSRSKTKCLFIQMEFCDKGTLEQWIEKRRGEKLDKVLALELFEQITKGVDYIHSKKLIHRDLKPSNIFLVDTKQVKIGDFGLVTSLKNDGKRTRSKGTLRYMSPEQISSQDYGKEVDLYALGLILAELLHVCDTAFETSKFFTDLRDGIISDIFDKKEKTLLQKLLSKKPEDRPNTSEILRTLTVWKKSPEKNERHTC
Data set [4] has as its target T1, PKR dsRBD (UniProt P19525 1-184). Nature of the data set: sedimentation velocity AUC; Kd1; footnote b not in material; AU75: 75 mM HEPES pH 7.5, 75 mM NaCl, 0.1 mM EDTA, 0.1 mM TCEP, 20 °C, 50,000 rpm, 260 nm; errors are confidence intervals (95% joint stated for Table 2); crosslinking in AU75 + 10 mM EDTA, 0.5 µM RNA, 1 µM protein, on ice before UV. As to conditions: protein: recombinant; chain copies: 2; weak predicted secondary structure.

Data set [5] deals with T1, PKR dsRBD. The experiment in a line: sedimentation velocity AUC; Kd1, sequential 2:1; AU75: 75 mM HEPES pH 7.5, 75 mM NaCl, 0.1 mM EDTA, 0.1 mM TCEP, 20 °C, 50,000 rpm, 260 nm; errors are confidence intervals (95% joint stated for Table 2); crosslinking in AU75 + 10 mM EDTA, 0.5 µM RNA, 1 µM protein, on ice before UV. As to conditions: protein: recombinant; chain copies: 2; single strand.

Another data set has as its target 185-kinase (UniProt P19525 185-551). Described as above. Particulars: protein: recombinant; tags: TEV-cleaved, extra N-terminal Gly; chain copies: 2; single strand.
The target of data set [6] is 242-kinase (UniProt P19525 242-551). Nature of the data set: sedimentation velocity AUC; 1:1 model; second protein not detected; AU75: 75 mM HEPES pH 7.5, 75 mM NaCl, 0.1 mM EDTA, 0.1 mM TCEP, 20 °C, 50,000 rpm, 260 nm; errors are confidence intervals (95% joint stated for Table 2); crosslinking in AU75 + 10 mM EDTA, 0.5 µM RNA, 1 µM protein, on ice before UV. Particulars: protein: recombinant; tags: TEV-cleaved; single strand.
Chain of 242-kinase (UniProt P19525 242-551) (P19525 242-551): as the sequence (P19525 242-551) above

Where [7] appears, read: weak predicted secondary structure.

Where “and” joins values, the source holds several entries; their conditions need not be identical. Identical values can stand only once.

T1 sequence (P19525 1-184): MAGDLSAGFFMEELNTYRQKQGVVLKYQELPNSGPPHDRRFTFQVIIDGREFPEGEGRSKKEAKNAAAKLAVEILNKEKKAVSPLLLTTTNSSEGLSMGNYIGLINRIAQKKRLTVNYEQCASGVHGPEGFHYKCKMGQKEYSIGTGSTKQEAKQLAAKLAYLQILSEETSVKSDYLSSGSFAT
Chain of 229-kinase (UniProt P19525 229-551) (P19525 229-551): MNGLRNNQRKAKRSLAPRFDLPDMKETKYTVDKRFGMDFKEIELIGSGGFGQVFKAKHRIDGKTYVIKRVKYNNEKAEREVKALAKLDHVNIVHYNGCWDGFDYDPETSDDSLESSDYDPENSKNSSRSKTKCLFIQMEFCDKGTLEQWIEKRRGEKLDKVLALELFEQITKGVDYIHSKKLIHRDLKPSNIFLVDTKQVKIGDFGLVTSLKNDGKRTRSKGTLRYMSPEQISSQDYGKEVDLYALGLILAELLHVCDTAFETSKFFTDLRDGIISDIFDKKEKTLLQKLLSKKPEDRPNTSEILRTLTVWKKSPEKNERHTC
Chain of 229-kinase (UniProt P19525) (P19525 229-551): as above
Chain of 185-kinase (P19525 185-551): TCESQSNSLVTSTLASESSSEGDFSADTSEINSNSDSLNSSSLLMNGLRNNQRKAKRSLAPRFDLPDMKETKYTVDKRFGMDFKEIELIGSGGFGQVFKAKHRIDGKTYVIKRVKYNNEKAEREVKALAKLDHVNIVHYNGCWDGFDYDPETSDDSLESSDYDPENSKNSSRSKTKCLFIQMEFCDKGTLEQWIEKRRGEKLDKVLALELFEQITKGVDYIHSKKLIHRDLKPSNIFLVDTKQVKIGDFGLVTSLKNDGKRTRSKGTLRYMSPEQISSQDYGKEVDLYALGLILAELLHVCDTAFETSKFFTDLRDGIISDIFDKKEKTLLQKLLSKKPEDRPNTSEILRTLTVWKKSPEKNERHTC

In the case of ds30, the Kd with 229-kinase [1] is 3.8 µM and 3.27 µM; with 242-kinase [2], 19.9 µM.

Take TTTTTTTTTTTTTTTTTTTTTTTTTTTTTT (ssDNA) [dT30]: the Kd with 229-kinase [3] stood at 2.59 µM.

With GGAGAACUUAAUGCCGGAGACCAAAGACUU (ssRNA, 5'-triphosphate) [ppp-Het30], the Kd is 0.825 µM in the data set with PKR full length (setting [7]) and 5.36 µM in the data set with PKR dsRBD [4].

For GGAGAACUUAAUGCCGGAGACCAAAGACUU (ssRNA, 5'-OH) [Het30], the Kd is 1.07 µM in the data set with PKR full length (setting [7]) and 8.21 µM with PKR dsRBD [4].

As for UUUUUUUUUUUUUUUUUUUUUUUUUUUUUU (ssRNA) [U30], the Kd came to 3.51 µM with PKR full length (single strand); 8.42 µM in the data set with PKR dsRBD [5]; 31.9 µM with 185-kinase; 1.91 µM with 229-kinase [3]; 90 µM with 242-kinase [6].
